Data: article PMC4622058

Target: Human FcγRIIIa V158 (human)
Experiment: AlphaScreen or HTRF

Row | fold difference in binding against IgG1 | fold decrease in binding against IgG1 | Substance
1 | < 2 fold |  | anti-CD142 mAb variant 2h-AEA (IgG1 with IgG2 lower hinge, K326A/I332E/E333A) (antibody)
2 | < 2 fold |  | anti-CD142 mAb variant 2h-DAA (IgG1 with IgG2 lower hinge, S239D/K326A/E333A) (antibody)
3 |  | > 30 fold | anti-CD142 mAb with human IgG2 constant region (antibody)
